The assay addresses T1, CD19 on Nalm6 cells (Homo sapiens, UniProt P15391).
T1 construct: CD19 (B-lymphocyte antigen CD19) on the surface of Nalm6 cells; this is surmised; source: Nalm6 cells expressing CD19 on the cell surface
The experiment in a line: flow cytometry on cells; purified antibodies titrated on Nalm6 cells expressing CD19; cell-based FACS assay. Particulars: one partner purified.

T1 sequence (P15391 20-556): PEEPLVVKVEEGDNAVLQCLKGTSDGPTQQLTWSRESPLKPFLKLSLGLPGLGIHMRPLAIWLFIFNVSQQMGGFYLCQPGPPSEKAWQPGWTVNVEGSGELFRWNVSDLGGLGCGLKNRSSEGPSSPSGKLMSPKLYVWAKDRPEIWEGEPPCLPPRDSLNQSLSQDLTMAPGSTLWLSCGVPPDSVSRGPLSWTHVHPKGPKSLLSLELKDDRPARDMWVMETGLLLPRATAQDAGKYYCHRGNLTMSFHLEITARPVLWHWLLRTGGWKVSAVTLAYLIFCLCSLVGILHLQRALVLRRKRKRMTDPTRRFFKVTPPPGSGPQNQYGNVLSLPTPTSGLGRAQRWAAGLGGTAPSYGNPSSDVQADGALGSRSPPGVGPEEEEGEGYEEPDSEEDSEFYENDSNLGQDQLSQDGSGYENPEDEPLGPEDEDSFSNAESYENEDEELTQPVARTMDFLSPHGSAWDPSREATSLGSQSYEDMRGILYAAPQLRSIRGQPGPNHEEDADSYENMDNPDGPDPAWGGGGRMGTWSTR

B1: CD19^M1 antibody (antibody, V domains shown)
VH: EVKLKESGPGLVAPSQSLSVTCKASGVSLPDYGVSWIRQPPRKGLEWLGVIWGSETTYYNSALKSRLTIIKDNSKSQVFLKMNSLQTDDTAIYYCAKHYYYGGSYAMDYWGQGTSVTVSS
VL: DIKMTQTTSSLSASLGDRVTISCRASQDISKYLNWYQQKPDGTVKLLIYHTSRLHSGVPSRFSGSGSGTDYSLTISNLEQEDIATYFCQQGNTLPYTFGGGTKLEIK
notes: as the VH of m1 (FMC63) with uncharged framework residues mutated to lysines; human IgG1 constant region, fused to the variable region in the pCMV plasmid; as the VL of m1 (FMC63) with uncharged framework residues mutated to lysines; light-chain constant region; IgG1 format; Variant of FMC63 with positively charged patches introduced into the framework regions; also called PCP-modified CD19 …
As for B1, the EC50 came to 2.6 nM.

Source of the values: paper PMC10156745, “Tuning charge density of chimeric antigen receptor optimizes tonic signaling and CAR-T cell fitness” (Cell Research, 2023).
